Data published in PMC3918674 (Journal of molecular biology, 2013).
Where no end group is shown, it is not given here.

Columns and labels:
[1] = biological target: ClpAP complex (hexameric ClpA associated with tetradecameric ClpP) (Escherichia coli, UniProt P0ABH9 1-758; P0A6G7 15-207); test: single-turnover stopped-flow fluorescence
SEC = biological target: the molecule itself; test: SEC

Sequence of ClpAP complex (hexameric ClpA associated with tetradecameric ClpP) (P0ABH9 whole entry, chain 1 of 2): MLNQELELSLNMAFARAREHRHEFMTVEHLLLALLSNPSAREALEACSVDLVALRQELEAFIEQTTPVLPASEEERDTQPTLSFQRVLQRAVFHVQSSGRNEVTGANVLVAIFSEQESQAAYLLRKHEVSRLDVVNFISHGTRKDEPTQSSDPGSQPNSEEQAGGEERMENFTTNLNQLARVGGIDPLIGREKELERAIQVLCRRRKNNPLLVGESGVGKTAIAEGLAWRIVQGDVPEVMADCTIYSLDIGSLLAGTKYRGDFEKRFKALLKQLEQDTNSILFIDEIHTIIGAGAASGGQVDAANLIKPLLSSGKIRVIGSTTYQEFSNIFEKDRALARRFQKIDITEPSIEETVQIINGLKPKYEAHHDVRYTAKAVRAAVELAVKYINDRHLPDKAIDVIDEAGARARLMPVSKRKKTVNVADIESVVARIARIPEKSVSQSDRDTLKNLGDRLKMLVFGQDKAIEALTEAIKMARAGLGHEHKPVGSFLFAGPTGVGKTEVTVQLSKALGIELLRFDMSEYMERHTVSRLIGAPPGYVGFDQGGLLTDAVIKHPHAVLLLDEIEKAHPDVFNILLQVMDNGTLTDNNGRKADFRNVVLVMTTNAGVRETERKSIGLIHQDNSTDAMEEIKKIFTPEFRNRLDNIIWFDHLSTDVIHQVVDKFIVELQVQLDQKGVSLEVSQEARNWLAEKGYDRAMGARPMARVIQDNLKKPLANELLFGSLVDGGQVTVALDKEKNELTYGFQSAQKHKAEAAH
Sequence of ClpAP complex (hexameric ClpA associated with tetradecameric ClpP) (P0A6G7 15-207, chain 2 of 2): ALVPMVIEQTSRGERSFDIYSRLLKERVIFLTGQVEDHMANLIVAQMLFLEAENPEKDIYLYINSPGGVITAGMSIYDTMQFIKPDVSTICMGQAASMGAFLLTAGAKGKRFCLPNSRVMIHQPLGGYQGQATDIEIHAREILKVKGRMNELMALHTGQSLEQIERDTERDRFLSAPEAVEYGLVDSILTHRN

| Binder | binding result [1] | stoichiometry N (SEC) |
| --- | --- | --- |
| C(fluorescein‑5‑maleimide)LILHNKQLGMTGEVSFQAANTKSAANLKVKELRSKKKLAANDENYALAA [N-Cys-50 polypeptide translocation substrate] | binds |  |
| C(fluorescein‑5‑maleimide)TGEVSFQAANTKSAANLKVKELRSKKKLAANDENYALAA [N-Cys-40 polypeptide translocation substrate] | binds |  |
| Escherichia coli ClpP (enzyme) not shown |  | 7 |
| C(fluorescein‑5‑maleimide)TKSAANLKVKELRSKKKLAANDENYALAA [N-Cys-30 polypeptide translocation substrate] | binds |  |
